Measurements reported in article PMC3034019.

Target: Oregon-Green-labelled actin monomers (OG-actin) (UniProt P68135)
Experiment: stopped-flow fluorescence kinetics

- kon: 1.2e+07 to 1.8e+07 M⁻¹ s⁻¹
Substance: EVH2 domain of human VASP (hEVH2) (domain or fragment)
